Results as given in PMC10527876.
Blank lines part the entries; values can stand above or below the binder they belong to.

Target: human CYP2D6 (human) (UniProt P10635)
Chain of UniProt P10635 (P10635 whole entry): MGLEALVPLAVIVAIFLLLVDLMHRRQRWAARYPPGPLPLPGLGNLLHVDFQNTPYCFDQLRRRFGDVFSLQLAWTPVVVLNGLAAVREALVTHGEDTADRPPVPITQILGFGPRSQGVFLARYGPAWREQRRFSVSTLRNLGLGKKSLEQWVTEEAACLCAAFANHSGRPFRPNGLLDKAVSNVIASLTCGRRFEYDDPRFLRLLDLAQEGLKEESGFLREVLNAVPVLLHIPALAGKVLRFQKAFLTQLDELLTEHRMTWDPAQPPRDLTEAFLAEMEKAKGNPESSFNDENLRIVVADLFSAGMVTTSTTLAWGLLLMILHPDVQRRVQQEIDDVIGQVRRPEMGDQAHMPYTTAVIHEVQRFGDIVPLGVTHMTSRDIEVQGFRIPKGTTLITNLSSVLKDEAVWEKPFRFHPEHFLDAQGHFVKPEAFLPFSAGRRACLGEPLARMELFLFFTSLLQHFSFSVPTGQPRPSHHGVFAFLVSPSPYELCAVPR

production of 4-hydroxypropranolol from propranolol by CYP2D6 in co-expressing enzyme bags (SAN307), against the CYP2D6 control strain SAN300: 2.1 fold
production of 5-hydroxypropranolol from propranolol by CYP2D6 in co-expressing enzyme bags (SAN307), against the CYP2D6 control strain SAN300: 4.8 fold
B1: human UGT1A8 (enzyme)
chain: GKLLVVPMDGSHWFTMQSVVEKLILRGHEVVVVMPEVSWQLGKSLNCTVKTYSTSYTLEDLDREFMDFADAQWKAQVRSLFSLFLSSSNGFFNLFFSHCRSLFNDRKLVEYLKESSFDAVFLDPFDACGLIVAKYFSLPSVVFARGIACHYLEEGAQCPAPLSYVPRILLGFSDAMTFKERVRNHIMHLEEHLFCQYFSKNALEIASEILQTPVTAYDLYSHTSIWLLRTDFVLDYPKPVMPNMIFIGGINCHQGKPLPMEFEAYINASGEHGIVVFSLGSMVSEIPEKKAMAIADALGKIPQTVLWRYTGTRPSNLANNTILVKWLPQNDLLGHPMTRAFITHAGSHGVYESICNGVPMVMMPLFGDQMDNAKRMETKGAGVTLNVLEMTSEDLENALKAVINDKSYKENIMRLSSLHKDRPVEPLDLAVFWVEFVMRHKGAPHLRPAAHDLTWYQYHSLDVIGFLLAVVLTVAFITFKCCAYGYRKCLGKKGRVKKAHKSKTH

production of 4-hydroxypropranolol from propranolol by CYP2D6 in co-expressing enzyme bags (SAN308), against the CYP2D6 control strain SAN300: 2.8 fold
production of 5-hydroxypropranolol from propranolol by CYP2D6 in co-expressing enzyme bags (SAN308), against the CYP2D6 control strain SAN300: 5.8 fold
B2: human UGT1A9 (enzyme)
chain: GKLLVVPMDGSHWFTMRSVVEKLILRGHEVVVVMPEVSWQLGRSLNCTVKTYSTSYTLEDLDREFKAFAHAQWKAQVRSIYSLLMGSYNDIFDLFFSNCRSLFKDKKLVEYLKESSFDAVFLDPFDNCGLIVAKYFSLPSVVFARGILCHYLEEGAQCPAPLSYVPRILLGFSDAMTFKERVRNHIMHLEEHLLCHRFFKNALEIASEILQTPVTEYDLYSHTSIWLLRTDFVLDYPKPVMPNMIFIGGINCHQGKPLPMEFEAYINASGEHGIVVFSLGSMVSEIPEKKAMAIADALGKIPQTVLWRYTGTRPSNLANNTILVKWLPQNDLLGHPMTRAFITHAGSHGVYESICNGVPMVMMPLFGDQMDNAKRMETKGAGVTLNVLEMTSEDLENALKAVINDKSYKENIMRLSSLHKDRPVEPLDLAVFWVEFVMRHKGAPHLRPAAHDLTWYQYHSLDVIGFLLAVVLTVAFITFKCCAYGYRKCLGKKGRVKKAHKSKTH

production of 4-hydroxypropranolol from propranolol by CYP2D6 in co-expressing enzyme bags (SAN306), against the CYP2D6 control strain SAN300: 3.3 fold
production of 5-hydroxypropranolol from propranolol by CYP2D6 in co-expressing enzyme bags (SAN306), against the CYP2D6 control strain SAN300: 8.4 fold
B3: human UGT1A7 (enzyme)
chain: GKLLVVPMDGSHWFTMQSVVEKLILRGHEVVVVMPEVSWQLGRSLNCTVKTYSTSYTLEDQDREFMVFADARWTAPLRSAFSLLTSSSNGIFDLFFSNCRSLFNDRKLVEYLKESCFDAVFLDPFDACGLIVAKYFSLPSVVFARGIFCHYLEEGAQCPAPLSYVPRLLLGFSDAMTFKERVWNHIMHLEEHLFCPYFFKNVLEIASEILQTPVTAYDLYSHTSIWLLRTDFVLEYPKPVMPNMIFIGGINCHQGKPVPMEFEAYINASGEHGIVVFSLGSMVSEIPEKKAMAIADALGKIPQTVLWRYTGTRPSNLANNTILVKWLPQNDLLGHPMTRAFITHAGSHGVYESICNGVPMVMMPLFGDQMDNAKRMETKGAGVTLNVLEMTSEDLENALKAVINDKSYKENIMRLSSLHKDRPVEPLDLAVFWVEFVMRHKGAPHLRPAAHDLTWYQYHSLDVIGFLLAVVLTVAFITFKCCAYGYRKCLGKKGRVKKAHKSKTH
